± gives the uncertainty stated by the source.
Test: self-splicing fitness, log relative to wild type (ln ratio); higher = more splicing; Tetrahymena group I intron in knt gene, E. coli kanamycin selection, DiMSum; sequences stand for … in CUCUCU…GGAGGGAAAAGUUAUCAGGCAUGCACCUGGUAGCUAGUCUUUAAACCAAUAGAUUGCAUCGGUUUAAAAGGCAAGACCGUCAAAUUGCGGGAAAGGGGUCAACAGCCGUUCAGUACCAAGUCUCAGGGGAAACUUUGAGAUGGCCUUGCAAAGGGUAUGGUAAUAAGCUGACGGACAUGGUCCUAACCACGCAGCCAAGUCCUAAGUCAACAGAUCUUCUGUUGAUAUGGAUGCAGUUCACAGACUAAAUGUCGGUCGGGGAAGAUGUAUUCUUCUCAUAAGAUAUAGUCGGACCUCUCCUUAAUGGGAGCUAGCGGAUGAAGUGAUGCAACACUGGAGCCGCUGGGAACUAAUUUGUAUGCGAAAGUAUAUUGAUUAGUUUUGGAGUACUCGUGGUCG
Method in brief: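 Colonies from six replicate transformations of E. coli BL21(DE3) were pooled and amplicon-sequenced on an Illumina HiSeq 2500. The library placed an intron with all eight P1ex-region nucleotides randomised inside the knt kanamycin-resistance gene on pET-22b(+), and cells grew overnight at 37°C or 30°C on LB agar with or without 25 μg/mL kanamycin (plus 100 μg/mL carbenicillin, 50 μM IPTG, 0.2% rhamnose). Fitness is the DiMSum error-weighted combination of wild-type-normalised replicate fold changes, kanamycin versus none.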

Sequence | self-splicing fitness (ln) (30 °C) | self-splicing fitness (ln) (37 °C)
AUCAAGCAAUAUUACGCUCC | -0.122 ± 0.16 | -1.04 ± 0.17
AUCAAGCAAUAUUACGCUUC |  | -2.01 ± 0.46
AUCAAGCAAUAUUACGGAUU | -3.31 ± 0.17 | -1.2 ± 0.14
AUCAAGCAAUAUUACGGCAA | -0.819 ± 0.088 | -0.213 ± 0.097
AUCAAGCAAUAUUACGGCAC | -1.67 ± 0.1 | -0.0454 ± 0.16
AUCAAGCAAUAUUACGGGAC | -2.23 ± 0.081 | -1.11 ± 0.1
AUCAAGCAAUAUUACGUACA | -1.21 ± 0.1 | -0.544 ± 0.12
AUCAAGCAAUAUUACGUACC | -0.82 ± 0.12 | -0.953 ± 0.17
AUCAAGCAAUAUUACGUACU | -0.173 ± 0.057 | 0.183 ± 0.066
AUCAAGCAAUAUUACGUAGC | -4.82 ± 0.45 | -2.1 ± 0.31
AUCAAGCAAUAUUACGUCCU | -0.37 ± 0.088 | 0.533 ± 0.12
AUCAAGCAAUAUUACGUGUA | -2.39 ± 0.14 | -1.42 ± 0.12
AUCAAGCAAUAUUACGUGUC | -3.9 ± 0.15 | -2.6 ± 0.16
AUCAAGCAAUAUUACGUUGC | -3.84 ± 0.18 | -2 ± 0.15
AUCCAGCAAUAUUACGAAUC | -2.04 ± 0.15 | -1.87 ± 0.22
AUCCAGCAAUAUUACGACUU | 0.167 ± 0.074 | 0.32 ± 0.086
AUCCAGCAAUAUUACGAGAU | -3.77 ± 0.2 | -2.22 ± 0.19
AUCCAGCAAUAUUACGAGGU | -3.37 ± 0.23 | -2.65 ± 0.22
AUCCAGCAAUAUUACGAUAC | -2.91 ± 0.23 | -0.914 ± 0.15
AUCCAGCAAUAUUACGAUAG | -2.71 ± 0.25 | -2.84 ± 0.31
AUCCAGCAAUAUUACGAUCC | -1.43 ± 0.21 | -0.865 ± 0.21
AUCCAGCAAUAUUACGCCCU | -0.182 ± 0.15 | -0.00746 ± 0.21
AUCCAGCAAUAUUACGCGGC | -2.86 ± 0.18 | -4.06 ± 0.24
AUCCAGCAAUAUUACGCGUG | -2.3 ± 0.11 | -1.72 ± 0.11

Sequence | self-splicing fitness (ln) (30 °C) | self-splicing fitness (ln) (37 °C)
AUCCAGCAAUAUUACGGAAG | -1.1 ± 0.11 | -0.947 ± 0.14
AUCCAGCAAUAUUACGGCCU | -0.115 ± 0.065 | 0.0854 ± 0.081
AUCCAGCAAUAUUACGGGGA | -1.4 ± 0.11 | -1.71 ± 0.14
AUCCAGCAAUAUUACGUACC | -2 ± 0.17 | -0.552 ± 0.32
AUCCAGCAAUAUUACGUACG | -1.7 ± 0.11 | -0.813 ± 0.19
AUCCAGCAAUAUUACGUCAU | -0.725 ± 0.041 | -0.313 ± 0.057
AUCCAGCAAUAUUACGUCGC | -3.25 ± 0.24 | -2.08 ± 0.19
AUCCAGCAAUAUUACGUGAG | -0.052 ± 0.045 | 0.237 ± 0.073
AUCCAGCAAUAUUACGUGGU | -3.14 ± 0.12 | -2.9 ± 0.15
AUCCAGCAAUAUUACGUUCA | -1.02 ± 0.068 | -0.265 ± 0.072
AUCCAGCAAUAUUACGUUUA | -1.81 ± 0.076 | -1.01 ± 0.081
AUCGAGCAAUAUUACGAAAA | -3.6 ± 0.39 | -2.1 ± 0.32
AUCGAGCAAUAUUACGAACA | -2.91 ± 0.24 | -1.27 ± 0.2
AUCGAGCAAUAUUACGAAGU | -2.62 ± 0.18 | -1.49 ± 0.18
AUCGAGCAAUAUUACGACCU | -0.95 ± 0.092 | -0.344 ± 0.15
AUCGAGCAAUAUUACGAUCC | -2.13 ± 0.46 | 
AUCGAGCAAUAUUACGCAAA | -2.86 ± 0.16 | -2.38 ± 0.26
AUCGAGCAAUAUUACGCAUA |  | -1.54 ± 0.36
AUCGAGCAAUAUUACGCGGU | -2.9 ± 0.27 | -1.4 ± 0.22
AUCGAGCAAUAUUACGCUGG | -2.78 ± 0.21 | -2.96 ± 0.2
AUCGAGCAAUAUUACGCUGU | -2.24 ± 0.18 | -3.35 ± 0.37
AUCGAGCAAUAUUACGGAAC | -2.61 ± 0.31 | -2.07 ± 0.4
AUCGAGCAAUAUUACGGAAU | -3.47 ± 0.21 | -1.79 ± 0.18
AUCGAGCAAUAUUACGGACA | -1.98 ± 0.38 | -1.41 ± 0.42

Sequence | self-splicing fitness (ln) (30 °C) | self-splicing fitness (ln) (37 °C)
AUCGAGCAAUAUUACGGCCA | -1.35 ± 0.41 | -1.47 ± 0.37
AUCGAGCAAUAUUACGGCCC | -3.15 ± 0.35 | 1.32 ± 0.32
AUCGAGCAAUAUUACGGCUU | -3.88 ± 0.3 | -2.58 ± 0.29
AUCGAGCAAUAUUACGGGAC | -2.89 ± 0.27 | -1.11 ± 0.19
AUCGAGCAAUAUUACGGGAG | -3.52 ± 0.25 | -2.5 ± 0.29
AUCGAGCAAUAUUACGGGGA | -2.83 ± 0.22 | -1.18 ± 0.15
AUCGAGCAAUAUUACGGUCG | -2.73 ± 0.38 | 
AUCGAGCAAUAUUACGUCAU | -2.35 ± 0.14 | -1.65 ± 0.15
AUCGAGCAAUAUUACGUGGU | -3.23 ± 0.15 | -2.72 ± 0.14
AUCGAGCAAUAUUACGUGUC | -3.76 ± 0.22 | -0.765 ± 0.13
AUCGAGCAAUAUUACGUUAU | -3.5 ± 0.26 | -2.59 ± 0.28
AUCGAGCAAUAUUACGUUCC | -1.89 ± 0.24 | -2.02 ± 0.26
AUCGAGCAAUAUUACGUUUG | -4.29 ± 0.3 | -2.05 ± 0.21
AUCUAGCAAUAUUACGAAGA | -1.45 ± 0.14 | -1.67 ± 0.15
AUCUAGCAAUAUUACGACCA | -0.438 ± 0.12 | -0.302 ± 0.14
AUCUAGCAAUAUUACGACUC | -0.0532 ± 0.28 | 
AUCUAGCAAUAUUACGAGUC | -4.11 ± 0.36 | -2.19 ± 0.25
AUCUAGCAAUAUUACGAGUU | -2.66 ± 0.16 | -0.737 ± 0.14
AUCUAGCAAUAUUACGAUCA | -1.92 ± 0.14 | -0.116 ± 0.18
AUCUAGCAAUAUUACGAUGC | -1.74 ± 0.13 | -1.33 ± 0.16
AUCUAGCAAUAUUACGCAUG | -1.88 ± 0.13 | -0.806 ± 0.12
AUCUAGCAAUAUUACGCCAG | -2.77 ± 0.26 | -2.17 ± 0.25
AUCUAGCAAUAUUACGCGAA | -2 ± 0.24 | -0.373 ± 0.14
AUCUAGCAAUAUUACGCGCC | -0.659 ± 0.17 | -0.398 ± 0.16

Sequence | self-splicing fitness (ln) (30 °C) | self-splicing fitness (ln) (37 °C)
AUCUAGCAAUAUUACGCUUA | -1.44 ± 0.1 | -0.971 ± 0.096
AUCUAGCAAUAUUACGGAAG | -1.99 ± 0.12 | -0.947 ± 0.15
AUCUAGCAAUAUUACGGCAC | -1.5 ± 0.13 | -0.819 ± 0.17
AUCUAGCAAUAUUACGGUGA | -1.75 ± 0.11 | -0.608 ± 0.13
AUCUAGCAAUAUUACGGUUG | -2.66 ± 0.15 | -2.45 ± 0.19
AUCUAGCAAUAUUACGUGAA | -2.52 ± 0.12 | -0.861 ± 0.12
AUCUAGCAAUAUUACGUGCA | -0.394 ± 0.15 | -0.423 ± 0.18
AUCUAGCAAUAUUACGUGGA | -2.71 ± 0.24 | -2.91 ± 0.26
AUCUAGCAAUAUUACGUGUU | -2.71 ± 0.17 | -2.54 ± 0.17
AUCUAGCAAUAUUACGUUAG | -3.26 ± 0.19 | -2.67 ± 0.24
AUCUAGCAAUAUUACGUUUC | -2.64 ± 0.35 | -2.9 ± 0.47
AUGAAGCAAUAUUACGAAAC | -2.04 ± 0.2 | -0.541 ± 0.3
AUGAAGCAAUAUUACGACGG | -0.0267 ± 0.085 | 0.216 ± 0.14
AUGAAGCAAUAUUACGAGCG | 0.0672 ± 0.066 | 0.405 ± 0.085
AUGAAGCAAUAUUACGAUCG | 0.0492 ± 0.071 | 0.821 ± 0.11
AUGAAGCAAUAUUACGCACU | 0.079 ± 0.14 | 0.992 ± 0.22
AUGAAGCAAUAUUACGCCAU | -1.17 ± 0.082 | -0.85 ± 0.12
AUGAAGCAAUAUUACGCUAG | -0.164 ± 0.07 | 0.337 ± 0.086
AUGAAGCAAUAUUACGCUCG | -0.0634 ± 0.1 | 0.31 ± 0.16
AUGAAGCAAUAUUACGGCGA | 0.267 ± 0.082 | 0.989 ± 0.11
AUGAAGCAAUAUUACGGCGG | -0.365 ± 0.083 | 0.476 ± 0.11
AUGAAGCAAUAUUACGGCUG | 0.352 ± 0.066 | 0.0954 ± 0.087
AUGAAGCAAUAUUACGGUCA | 0.145 ± 0.07 | 0.605 ± 0.1
AUGAAGCAAUAUUACGGUCC | -0.305 ± 0.12 | 0.363 ± 0.14

Reference: the supplement of paper PMC7877785
